Positions of bridges follow the written chain, without caps; N, C: chain ends. Non-standard residues stand in square brackets, D forms with d. Hyp = O=C(O)[C@@H]1C[C@@H](O)CN1; Pen = CC(C)(S)[C@H](N)C(=O)O; Orn = NCCC[C@H](N)C(=O)O; Thz = O=C(O)[C@@H]1CSCN1; Dab = NCC[C@H](N)C(=O)O; Aib = CC(C)(N)C(=O)O
B1: Chem. 117 (peptide)
peptide: cyclo(C[Thz]H[dF]HW[Pen]KKAAW)
modifications: disulfide 1-7
SMILES: C[C@@H]1NC(=O)[C@H](C)NC(=O)[C@H](CCCCN)NC(=O)[C@H](CCCCN)NC(=O)[C@H]2NC(=O)[C@H](Cc3c[nH]c4ccccc34)NC(=O)[C@H](Cc3c[nH]cn3)NC(=O)[C@@H](Cc3ccccc3)NC(=O)[C@H](Cc3c[nH]cn3)NC(=O)[C@@H]3CSCN3C(=O)[C@H](CSSC2(C)C)NC(=O)[C@H](Cc2c[nH]c3ccccc23)NC1=O
B2: Chem. 113 (peptide)
peptide: cyclo(C[Thz]H[dF]HWCARERR)
modifications: disulfide 1-7
SMILES: C[C@@H]1NC(=O)[C@@H]2CSSC[C@H](NC(=O)[C@H](CCCNC(=N)N)NC(=O)[C@H](CCCNC(=N)N)NC(=O)[C@H](CCC(=O)O)NC(=O)[C@H](CCCNC(=N)N)NC1=O)C(=O)N1CSC[C@H]1C(=O)N[C@@H](Cc1c[nH]cn1)C(=O)N[C@H](Cc1ccccc1)C(=O)N[C@@H](Cc1c[nH]cn1)C(=O)N[C@@H](Cc1c[nH]c3ccccc13)C(=O)N2
B3: Chem. 116 (peptide)
peptide: cyclo(C[Thz]H[dF]HWC[Orn][Orn]AAW)
modifications: disulfide 1-7
SMILES: C[C@@H]1NC(=O)[C@H](C)NC(=O)[C@H](CCCN)NC(=O)[C@H](CCCN)NC(=O)[C@@H]2CSSC[C@H](NC(=O)[C@H](Cc3c[nH]c4ccccc34)NC1=O)C(=O)N1CSC[C@H]1C(=O)N[C@@H](Cc1c[nH]cn1)C(=O)N[C@H](Cc1ccccc1)C(=O)N[C@@H](Cc1c[nH]cn1)C(=O)N[C@@H](Cc1c[nH]c3ccccc13)C(=O)N2
B4: Chem. 120 (peptide)
peptide: cyclo(C[Thz]H[dF]HWCAHE[Orn]R)
modifications: disulfide 1-7
SMILES: C[C@@H]1NC(=O)[C@@H]2CSSC[C@H](NC(=O)[C@H](CCCNC(=N)N)NC(=O)[C@H](CCCN)NC(=O)[C@H](CCC(=O)O)NC(=O)[C@H](Cc3c[nH]cn3)NC1=O)C(=O)N1CSC[C@H]1C(=O)N[C@@H](Cc1c[nH]cn1)C(=O)N[C@H](Cc1ccccc1)C(=O)N[C@@H](Cc1c[nH]cn1)C(=O)N[C@@H](Cc1c[nH]c3ccccc13)C(=O)N2
B5: Chem. 86 (peptide)
peptide: cyclo(C[dK]H[dF]HWC[dK]H[dF]HW)
modifications: disulfide 1-7
SMILES: NCCCC[C@H]1NC(=O)[C@@H]2CSSC[C@H](NC(=O)[C@H](Cc3c[nH]c4ccccc34)NC(=O)[C@H](Cc3c[nH]cn3)NC(=O)[C@@H](Cc3ccccc3)NC(=O)[C@H](Cc3c[nH]cn3)NC1=O)C(=O)N[C@H](CCCCN)C(=O)N[C@@H](Cc1c[nH]cn1)C(=O)N[C@H](Cc1ccccc1)C(=O)N[C@@H](Cc1c[nH]cn1)C(=O)N[C@@H](Cc1c[nH]c3ccccc13)C(=O)N2
B6: Chem. 121 (peptide)
peptide: cyclo(CPH[dF]HWCAH[dK][dK]R)
modifications: disulfide 1-7
SMILES: C[C@@H]1NC(=O)[C@@H]2CSSC[C@H](NC(=O)[C@H](CCCNC(=N)N)NC(=O)[C@@H](CCCCN)NC(=O)[C@@H](CCCCN)NC(=O)[C@H](Cc3c[nH]cn3)NC1=O)C(=O)N1CCC[C@H]1C(=O)N[C@@H](Cc1c[nH]cn1)C(=O)N[C@H](Cc1ccccc1)C(=O)N[C@@H](Cc1c[nH]cn1)C(=O)N[C@@H](Cc1c[nH]c3ccccc13)C(=O)N2
B7: Chem. 118 (peptide)
peptide: cyclo(C[Thz]H[dF]HWCKR)
modifications: disulfide 1-7
SMILES: N=C(N)NCCC[C@@H]1NC(=O)[C@H](CCCCN)NC(=O)[C@@H]2CSSC[C@H](NC1=O)C(=O)N1CSC[C@H]1C(=O)N[C@@H](Cc1c[nH]cn1)C(=O)N[C@H](Cc1ccccc1)C(=O)N[C@@H](Cc1c[nH]cn1)C(=O)N[C@@H](Cc1c[nH]c3ccccc13)C(=O)N2
B8: Chem. 6 (peptide)
peptide: cyclo(CH[dF]RW[dA]CH[dF]RW[dA])
modifications: disulfide 1-7
SMILES: C[C@H]1NC(=O)[C@H](Cc2c[nH]c3ccccc23)NC(=O)[C@H](CCCNC(=N)N)NC(=O)[C@@H](Cc2ccccc2)NC(=O)[C@H](Cc2c[nH]cn2)NC(=O)[C@@H]2CSSC[C@H](NC1=O)C(=O)N[C@@H](Cc1c[nH]cn1)C(=O)N[C@H](Cc1ccccc1)C(=O)N[C@@H](CCCNC(=N)N)C(=O)N[C@@H](Cc1c[nH]c3ccccc13)C(=O)N[C@H](C)C(=O)N2
B9: Chem. 46 (peptide)
peptide: cyclo(C[Aib]H[dF][Dab]WC[Aib]H[dF][Dab]W)
modifications: disulfide 1-7
SMILES: CC1(C)NC(=O)[C@@H]2CSSC[C@H](NC(=O)[C@H](Cc3c[nH]c4ccccc34)NC(=O)[C@H](CCN)NC(=O)[C@@H](Cc3ccccc3)NC(=O)[C@H](Cc3c[nH]cn3)NC1=O)C(=O)NC(C)(C)C(=O)N[C@@H](Cc1c[nH]cn1)C(=O)N[C@H](Cc1ccccc1)C(=O)N[C@@H](CCN)C(=O)N[C@@H](Cc1c[nH]c3ccccc13)C(=O)N2
B10: Chem. 33 (peptide)
peptide: cyclo(C[dP]H[dF]RWC[dP]H[dF]RW)
modifications: disulfide 1-7
SMILES: N=C(N)NCCC[C@@H]1NC(=O)[C@@H](Cc2ccccc2)NC(=O)[C@H](Cc2c[nH]cn2)NC(=O)[C@H]2CCCN2C(=O)[C@@H]2CSSC[C@H](NC(=O)[C@H](Cc3c[nH]c4ccccc34)NC1=O)C(=O)N1CCC[C@@H]1C(=O)N[C@@H](Cc1c[nH]cn1)C(=O)N[C@H](Cc1ccccc1)C(=O)N[C@@H](CCCNC(=N)N)C(=O)N[C@@H](Cc1c[nH]c3ccccc13)C(=O)N2
B11: Chem. 43 (peptide)
peptide: CXHFXWCXHFXW
modifications: Aib 2, 8; D-Phe 4, 10; AGP 5, 11; disulphide Cys1-Cys7; head-to-tail amide Cys1-Trp12
B12: Chem. 115 (peptide)
peptide: cyclo(C[Thz]H[dF]HWCK[Orn]AAW)
modifications: disulfide 1-7
SMILES: C[C@@H]1NC(=O)[C@H](C)NC(=O)[C@H](CCCN)NC(=O)[C@H](CCCCN)NC(=O)[C@@H]2CSSC[C@H](NC(=O)[C@H](Cc3c[nH]c4ccccc34)NC1=O)C(=O)N1CSC[C@H]1C(=O)N[C@@H](Cc1c[nH]cn1)C(=O)N[C@H](Cc1ccccc1)C(=O)N[C@@H](Cc1c[nH]cn1)C(=O)N[C@@H](Cc1c[nH]c3ccccc13)C(=O)N2
B13: Chem. 38 (peptide)
peptide: cyclo(C[Aib][Hyp][dF]RWC[Aib][Hyp][dF]RW)
modifications: disulfide 1-7
SMILES: CC1(C)NC(=O)[C@@H]2CSSC[C@H](NC(=O)[C@H](Cc3c[nH]c4ccccc34)NC(=O)[C@H](CCCNC(=N)N)NC(=O)[C@@H](Cc3ccccc3)NC(=O)[C@@H]3C[C@@H](O)CN3C1=O)C(=O)NC(C)(C)C(=O)N1C[C@H](O)C[C@H]1C(=O)N[C@H](Cc1ccccc1)C(=O)N[C@@H](CCCNC(=N)N)C(=O)N[C@@H](Cc1c[nH]c3ccccc13)C(=O)N2
B14: Chem. 114 (peptide)
peptide: cyclo(C[Thz]H[dF]HWCKA[dK]AW)
modifications: disulfide 1-7
SMILES: C[C@@H]1NC(=O)[C@H](CCCCN)NC(=O)[C@@H]2CSSC[C@H](NC(=O)[C@H](Cc3c[nH]c4ccccc34)NC(=O)[C@H](C)NC(=O)[C@@H](CCCCN)NC1=O)C(=O)N1CSC[C@H]1C(=O)N[C@@H](Cc1c[nH]cn1)C(=O)N[C@H](Cc1ccccc1)C(=O)N[C@@H](Cc1c[nH]cn1)C(=O)N[C@@H](Cc1c[nH]c3ccccc13)C(=O)N2
B15: Chem. 119 (peptide)
peptide: cyclo(C[Thz]H[dF]HWCA[Orn]E[Orn]R)
modifications: disulfide 1-7
SMILES: C[C@@H]1NC(=O)[C@@H]2CSSC[C@H](NC(=O)[C@H](CCCNC(=N)N)NC(=O)[C@H](CCCN)NC(=O)[C@H](CCC(=O)O)NC(=O)[C@H](CCCN)NC1=O)C(=O)N1CSC[C@H]1C(=O)N[C@@H](Cc1c[nH]cn1)C(=O)N[C@H](Cc1ccccc1)C(=O)N[C@@H](Cc1c[nH]cn1)C(=O)N[C@@H](Cc1c[nH]c3ccccc13)C(=O)N2
B16: Chem. 41 (peptide)
peptide: CXHFXWCXHFXW
modifications: Aib 2, 8; D-Phe 4, 10; Cit 5, 11; disulphide Cys1-Cys7; head-to-tail amide Cys1-Trp12
B17: Chem. 21 (peptide)
peptide: CAHFXWCAHFXW
modifications: D-Phe 4, 10; Arg(NO2) 5, 11; disulphide Cys1-Cys7; head-to-tail amide Cys1-Trp12
B18: Chem. 34 (peptide)
peptide: cyclo(C[dV]H[dF]RWC[dV]H[dF]RW)
modifications: disulfide 1-7
SMILES: CC(C)[C@H]1NC(=O)[C@@H]2CSSC[C@H](NC(=O)[C@H](Cc3c[nH]c4ccccc34)NC(=O)[C@H](CCCNC(=N)N)NC(=O)[C@@H](Cc3ccccc3)NC(=O)[C@H](Cc3c[nH]cn3)NC1=O)C(=O)N[C@H](C(C)C)C(=O)N[C@@H](Cc1c[nH]cn1)C(=O)N[C@H](Cc1ccccc1)C(=O)N[C@@H](CCCNC(=N)N)C(=O)N[C@@H](Cc1c[nH]c3ccccc13)C(=O)N2

Each binder was assayed against human melanocortin 1 receptor (human, UniProt Q01726 1-317) (assay: cell-based or functional assay).
human melanocortin 1 receptor, sequence (Q01726 whole entry): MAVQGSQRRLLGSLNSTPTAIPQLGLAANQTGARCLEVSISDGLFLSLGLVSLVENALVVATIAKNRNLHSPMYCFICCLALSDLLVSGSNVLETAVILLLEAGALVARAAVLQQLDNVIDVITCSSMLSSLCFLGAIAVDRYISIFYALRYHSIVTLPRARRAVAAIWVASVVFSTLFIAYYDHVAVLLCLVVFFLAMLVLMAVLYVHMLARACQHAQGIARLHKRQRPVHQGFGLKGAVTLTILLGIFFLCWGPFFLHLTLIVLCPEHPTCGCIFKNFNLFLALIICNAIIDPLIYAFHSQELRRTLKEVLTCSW
In the case of B1, the “MC1R cAMP EC50” value is reported as 168 nM. For B2, the “MC1R cAMP EC50” value was 42.2 nM. With B3 the “MC1R cAMP EC50” value was 231 nM. B4 was tested, and the “MC1R cAMP EC50” value was 294 nM. For B5, the “MC1R cAMP EC50” value was 147 nM. For B6, the “MC1R cAMP EC50” value was 189 nM. For B7, the “MC1R cAMP EC50” value was 4380 nM. In the case of B8, the “MC1R cAMP EC50” value is reported as 2.35 nM. In the case of B9, the “MC1R cAMP EC50” value is reported as over 5.5 nM. In the case of B10, the “MC1R cAMP EC50” value is reported as over 1 nM. For B11, the “MC1R cAMP EC50” value was 46.9 nM. With B12 the “MC1R cAMP EC50” value was 134 nM. For B13, the “MC1R cAMP EC50” value was over 3.7 nM. B14 was tested, and the “MC1R cAMP EC50” value was 114 nM. With B15 the “MC1R cAMP EC50” value was 99.6 nM. For B16, the “MC1R cAMP EC50” value was 137 nM. In the case of B17, the “MC1R cAMP EC50” value is reported as over 4 nM. B18 was tested, and the “MC1R cAMP EC50” value was 2.6 nM.

Each binder was assayed against human melanocortin 4 receptor (human, UniProt P32245 1-332) (assay: cell-based or functional assay).
human melanocortin 4 receptor, sequence (P32245 whole entry): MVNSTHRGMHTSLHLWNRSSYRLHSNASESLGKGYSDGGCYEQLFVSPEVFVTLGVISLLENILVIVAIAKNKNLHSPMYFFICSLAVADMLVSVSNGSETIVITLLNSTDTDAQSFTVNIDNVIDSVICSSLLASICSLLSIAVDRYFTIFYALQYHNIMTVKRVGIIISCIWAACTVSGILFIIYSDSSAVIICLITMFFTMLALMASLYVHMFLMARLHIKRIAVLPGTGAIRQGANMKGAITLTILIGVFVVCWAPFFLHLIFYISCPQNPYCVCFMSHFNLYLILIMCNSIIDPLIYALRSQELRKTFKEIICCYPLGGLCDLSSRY
In the case of B1, the “MC4R cAMP EC50” value is reported as 0.2 nM. With B2 the “MC4R cAMP EC50” value was 0.02 nM. In the case of B3, the “MC4R cAMP EC50” value is reported as 0.12 nM. With B4 the “MC4R cAMP EC50” value was 0.08 nM. For B6, the “MC4R cAMP EC50” value was 0.24 nM. For B7, the “MC4R cAMP EC50” value was 3.53 nM. B12 was tested, and the “MC4R cAMP EC50” value was 0.1 nM. For B14, the “MC4R cAMP EC50” value was 0.04 nM. B15 was tested, and the “MC4R cAMP EC50” value was 0.06 nM.

Reference: patent publication US20200223889A1 (Novo Nordisk, published 2020)
